From patent publication US20240182563A1 (GENOME, published 2024)

Key:
[1] = target: T1, Human CNTN-4 protein (human, UniProt Q8IWV2 19-1000, limits assumed); experiment: SPR, antibody captured by anti-human IgG Fc on CM5 chip, CNTN4 as analyte
T1 construct: soluble antigen run over the captured antibody; also called human CNTN4 (SPR analyte)
T1 sequence (looked up): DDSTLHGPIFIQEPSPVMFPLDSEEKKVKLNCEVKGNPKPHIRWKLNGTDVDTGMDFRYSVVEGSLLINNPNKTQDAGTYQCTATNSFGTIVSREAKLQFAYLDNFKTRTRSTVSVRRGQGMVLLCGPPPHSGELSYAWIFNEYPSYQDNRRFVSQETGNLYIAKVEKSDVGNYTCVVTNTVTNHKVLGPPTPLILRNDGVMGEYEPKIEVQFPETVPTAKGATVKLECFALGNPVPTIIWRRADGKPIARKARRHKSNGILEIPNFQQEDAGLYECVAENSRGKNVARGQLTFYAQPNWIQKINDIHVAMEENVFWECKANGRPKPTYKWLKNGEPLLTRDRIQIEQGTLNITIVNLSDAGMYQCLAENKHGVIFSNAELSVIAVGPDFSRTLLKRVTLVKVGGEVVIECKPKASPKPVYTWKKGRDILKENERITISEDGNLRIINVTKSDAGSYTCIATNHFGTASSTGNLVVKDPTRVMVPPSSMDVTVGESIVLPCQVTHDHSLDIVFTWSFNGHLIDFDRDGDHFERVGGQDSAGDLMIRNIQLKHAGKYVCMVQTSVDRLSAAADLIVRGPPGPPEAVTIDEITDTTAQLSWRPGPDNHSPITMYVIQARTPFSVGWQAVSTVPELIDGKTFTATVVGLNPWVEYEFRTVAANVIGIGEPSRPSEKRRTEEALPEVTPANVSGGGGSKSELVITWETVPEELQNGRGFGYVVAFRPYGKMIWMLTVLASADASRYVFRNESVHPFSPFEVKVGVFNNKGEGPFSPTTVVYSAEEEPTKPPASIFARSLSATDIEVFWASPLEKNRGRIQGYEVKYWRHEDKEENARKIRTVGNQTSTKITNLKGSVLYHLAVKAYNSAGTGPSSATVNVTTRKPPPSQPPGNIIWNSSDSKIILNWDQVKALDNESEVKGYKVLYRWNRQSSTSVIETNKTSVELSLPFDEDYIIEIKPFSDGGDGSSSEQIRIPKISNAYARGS
Procedure: An SPR test was performed on L1H2, which is most humanized at about 98%, among the antibodies prepared in Example 3.1. More specifically, in order to bind anti-human IgG Fc (capture antibody) using amine coupling, CM5 chip was mounted, running buffer was allowed to flow, the chip was activated, and then capture antibody was attached thereto. Dextrin to which capture antibody was not attached was deactivated using ethanolamine, and then regeneration was performed using 3M magnesium chloride to clear analyte except capture antibody. The L1H2 prepared at a concentration of 0.05 μg/mL was allowed to flow for 30 seconds at a rate of 10 μL/min for binding. Thereafter, human CNTN4 (400 nM to 0.78 nM) prepared by sequential dilution as an antigen was allowed to flow at a rate of 30 μL/min for 3 minutes to be bound, and dissociation was performed for 5 minutes. Then, in order to clear all analytes attached to the capture antibody, a regeneration solution (3M magnesium chloride) was allowed to flow at a rate of 20 μL/min for 30 seconds, and regeneration was performed. For each concentration of antigen, binding of L1H2, binding of antigen, dissociation, and regeneration were repeated in order.

[2] = target: T2, human CNTN4-10xHis (human, UniProt Q8IWV2 19-1000); experiment: ELISA, plate coated with CNTN4-10xHis, anti-human Fc-HRP
T2 sequence: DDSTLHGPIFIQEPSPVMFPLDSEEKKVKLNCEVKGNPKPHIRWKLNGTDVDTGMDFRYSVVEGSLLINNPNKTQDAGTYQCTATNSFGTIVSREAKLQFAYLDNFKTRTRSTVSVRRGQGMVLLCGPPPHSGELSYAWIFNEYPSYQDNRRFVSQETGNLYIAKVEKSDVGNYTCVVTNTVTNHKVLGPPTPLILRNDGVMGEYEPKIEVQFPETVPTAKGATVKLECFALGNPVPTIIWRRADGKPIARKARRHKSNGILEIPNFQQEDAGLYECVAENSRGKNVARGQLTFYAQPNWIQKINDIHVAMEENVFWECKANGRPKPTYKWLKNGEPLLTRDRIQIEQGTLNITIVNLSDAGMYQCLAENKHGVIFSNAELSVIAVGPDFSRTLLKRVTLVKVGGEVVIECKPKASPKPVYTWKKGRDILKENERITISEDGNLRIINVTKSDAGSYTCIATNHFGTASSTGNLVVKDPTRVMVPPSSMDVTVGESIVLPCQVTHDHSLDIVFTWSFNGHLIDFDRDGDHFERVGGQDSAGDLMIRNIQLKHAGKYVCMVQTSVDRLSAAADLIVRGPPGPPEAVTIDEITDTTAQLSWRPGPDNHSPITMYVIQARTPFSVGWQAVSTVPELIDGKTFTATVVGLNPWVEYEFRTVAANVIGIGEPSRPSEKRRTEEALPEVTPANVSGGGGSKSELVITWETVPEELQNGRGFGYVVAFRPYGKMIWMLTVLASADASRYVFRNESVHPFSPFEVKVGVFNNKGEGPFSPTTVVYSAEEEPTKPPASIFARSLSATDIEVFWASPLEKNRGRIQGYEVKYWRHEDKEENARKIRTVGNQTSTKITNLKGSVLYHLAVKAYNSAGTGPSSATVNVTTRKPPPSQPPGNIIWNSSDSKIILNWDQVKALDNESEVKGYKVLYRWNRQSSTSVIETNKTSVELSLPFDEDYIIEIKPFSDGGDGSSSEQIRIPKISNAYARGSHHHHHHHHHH
Procedure: (§1) The LAH2, L1H2, and L2H2 antibodies prepared in Example 3.1 were subjected to an ELISA test together with A-01. An ELISA plate was coated with 200 ng of antigens (human CNTN4-10xHis or mouse CNTN4-10xHis). For antibody binding, antibodies were serially diluted from a maximum of 1 μM to 0.0001 nM, thereby binding to the antigen. Anti-human Fc-HRP was used as a secondary antibody for antibody detection. Color was developed using ABTS, which is a color developing reagent, and the absorbance at 405 nm was measured.

[3] = target: T3, mouse CNTN4-10xHis (mouse, UniProt Q69Z26 19-1000); experiment: as above
T3 sequence: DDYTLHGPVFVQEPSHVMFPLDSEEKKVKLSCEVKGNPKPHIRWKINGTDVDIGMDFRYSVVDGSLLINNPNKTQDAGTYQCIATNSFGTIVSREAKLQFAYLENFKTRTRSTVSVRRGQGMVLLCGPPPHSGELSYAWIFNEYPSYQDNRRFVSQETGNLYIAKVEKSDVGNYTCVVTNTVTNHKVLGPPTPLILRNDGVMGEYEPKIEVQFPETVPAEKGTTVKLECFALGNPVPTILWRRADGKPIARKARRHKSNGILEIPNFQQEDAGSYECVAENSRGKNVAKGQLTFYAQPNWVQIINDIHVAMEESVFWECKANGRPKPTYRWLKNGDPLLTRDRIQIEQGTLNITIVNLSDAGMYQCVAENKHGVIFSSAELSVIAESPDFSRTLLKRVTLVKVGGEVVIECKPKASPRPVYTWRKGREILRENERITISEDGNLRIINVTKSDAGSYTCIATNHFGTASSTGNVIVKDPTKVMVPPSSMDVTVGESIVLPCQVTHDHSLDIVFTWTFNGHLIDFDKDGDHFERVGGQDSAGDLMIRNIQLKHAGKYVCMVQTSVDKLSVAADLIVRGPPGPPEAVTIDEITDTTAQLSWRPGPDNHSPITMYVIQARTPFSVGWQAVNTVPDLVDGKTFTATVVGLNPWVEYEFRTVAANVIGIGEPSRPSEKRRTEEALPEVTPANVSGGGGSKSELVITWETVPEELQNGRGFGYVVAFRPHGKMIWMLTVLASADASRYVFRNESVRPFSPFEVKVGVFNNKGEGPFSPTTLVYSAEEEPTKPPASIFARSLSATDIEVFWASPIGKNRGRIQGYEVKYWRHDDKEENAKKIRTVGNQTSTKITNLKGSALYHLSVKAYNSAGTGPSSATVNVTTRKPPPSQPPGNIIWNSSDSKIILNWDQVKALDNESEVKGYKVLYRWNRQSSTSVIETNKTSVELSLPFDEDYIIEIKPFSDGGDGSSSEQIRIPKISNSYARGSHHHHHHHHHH
Procedure: as §1

B1: anti-CNTN4 humanized antibody L1H2 (antibody, V domains shown)
VH: EVQLLESEGGLVQPGGSLRLSCAASGFTFSSFNMFWVRQAPGKGLEWVAEISGGGGSTWYAPAVKGRATISRDNSKNTVYLQMNSLRAEDTAVYYCAKSADTWSYGAATIDAWGQGTLVTVSS
VL: ELTQDPAVSVALGQTVRITCSGSSGSYGWYQQKPGQAPVLVIYDNTNRPSGIPDRFSGSSSGNTASLTITGAQAEDEADYYCGGYDGSTDVFGGGTKLTVL
notes: in the form of IgG4
Kd [1]: 93.2 nM
EC50 [2]: 0.028 nM
fold difference in binding ability against A-01 [2]: ≤ 3 times
EC50 [3]: 0.029 nM
fold difference in binding ability against A-01 [3]: ≤ 3 times
